Patent US20210347908A1 (ELPISCIENCE SUZHOU BIOPHARMA, published 2021)
Changes are numbered by the printed parent chain.

Columns and labels:
[1] = biological target: T1, Fc tagged human SIRPα v1 ECD recombinant protein (human, UniProt P78324 31-370); assay: ELISA
T1 construct: range 1-370; cloned range M1-R370 includes the signal peptide; also called hSIRPα V1; not shown: human IgG Fc region (hFc) of the pCPC vector

[2] = biological target: T2, Fc tagged human SIRPα v2 ECD recombinant protein (human); assay: ELISA
T2 construct: range 1-369; cloned range M1-R369 includes the signal peptide; also called hSIRPα V2

[3] = biological target: T3, Fc tagged human SIRPβ ECD recombinant protein (human, UniProt O00241 30-371); assay: ELISA
T3 construct: range 1-371; cloned range includes the signal peptide; also called hSIRPβ; not shown: human IgG Fc region (hFc) of the pCPC vector
T3 sequence (O00241 30-371 limits assumed, form in doubt): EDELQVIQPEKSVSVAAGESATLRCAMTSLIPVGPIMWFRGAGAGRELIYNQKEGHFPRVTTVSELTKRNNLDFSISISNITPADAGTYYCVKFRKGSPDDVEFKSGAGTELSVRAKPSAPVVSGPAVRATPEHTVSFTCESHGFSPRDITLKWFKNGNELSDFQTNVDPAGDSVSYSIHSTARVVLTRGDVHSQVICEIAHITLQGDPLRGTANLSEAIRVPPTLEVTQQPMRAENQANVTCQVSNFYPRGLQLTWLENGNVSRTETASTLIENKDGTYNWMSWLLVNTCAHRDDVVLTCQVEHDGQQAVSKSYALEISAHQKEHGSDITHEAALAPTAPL

[4] = biological target: T4, Fc tagged human SIRPγ ECD recombinant protein (human, UniProt Q9P1W8 29-360); assay: ELISA
T4 construct: range 1-360; cloned range includes the signal peptide; also called hSIRPγ; not shown: human IgG Fc region (hFc) of the pCPC vector
T4 sequence (Q9P1W8 29-360 limits assumed, form in doubt): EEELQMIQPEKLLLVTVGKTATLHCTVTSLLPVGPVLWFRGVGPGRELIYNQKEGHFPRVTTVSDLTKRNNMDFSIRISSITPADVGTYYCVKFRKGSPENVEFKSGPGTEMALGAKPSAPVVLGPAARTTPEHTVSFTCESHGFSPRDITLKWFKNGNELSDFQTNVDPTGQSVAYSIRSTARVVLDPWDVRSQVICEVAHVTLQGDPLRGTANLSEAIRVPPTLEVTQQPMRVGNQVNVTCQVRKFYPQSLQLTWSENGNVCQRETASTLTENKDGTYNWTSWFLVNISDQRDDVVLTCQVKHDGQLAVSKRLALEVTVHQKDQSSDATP

[5] = biological target: T5, 6×His tagged human SIRPα v8 ECD recombinant protein (human); assay: ELISA
T5 construct: extracellular domain; bought; also called hSIRPα V8

[6] = biological target: T6, 6×His tagged human SIRPα v1 ECD recombinant protein (human, UniProt P78324 31-373); assay: SPR (Biacore)
T6 construct: extracellular domain; bought; also called hSIRPα V1 (SPR antigen)
T6 sequence (P78324 other isoform, or with tags, fused parts or gaps): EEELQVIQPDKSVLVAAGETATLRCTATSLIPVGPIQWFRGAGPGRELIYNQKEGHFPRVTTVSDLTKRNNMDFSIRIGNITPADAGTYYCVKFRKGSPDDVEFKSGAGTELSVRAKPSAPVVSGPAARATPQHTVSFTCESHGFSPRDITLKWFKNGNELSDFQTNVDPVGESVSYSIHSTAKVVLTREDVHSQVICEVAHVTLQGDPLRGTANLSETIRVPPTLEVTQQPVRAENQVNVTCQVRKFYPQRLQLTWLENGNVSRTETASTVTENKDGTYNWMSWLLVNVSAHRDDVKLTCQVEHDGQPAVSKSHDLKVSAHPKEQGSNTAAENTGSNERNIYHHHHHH

[7] = biological target: T7, full length human SIRPα v1 stably expressed on CHOK1 cells (human, UniProt P78324 31-504); assay: FACS on CHOK1 cells
T7 construct: whole, on cells; also called CHOK1-human SIRPα v1-1B4 cells; CHOK1-human SIRPα v1
Procedure: (§1) Species cross reactivity of the purified hybridoma antibodies against human, cyno and mouse SIRPα was determined by FACS assay using CHOK1-human SIRPα v1-1B4 cells, CHOK1-cyno SIRPα-2A2 cells, and CHOK1-C57BL/6 mouse SIRPα-2.22 cells, which stably expressing SIRPα protein. Briefly the antibodies were incubated with 2×10⁵ target cells at 4° C. for 1 hour. After washing, fluorescence labeled anti-mouse or anti-human IgG 2nd antibody (Life Technologies) was added and incubated at 4° C. for 1 hour. Geometric median fluorescence intensity was detected and EC₅₀ was calculated. In particular, it is noted, in contrast to the other antibodies tested in the same experiment, 060 cannot bind with cyno SIRPα and 035 has cross reactivity against C57BL/6 mouse SIRPα.

[8] = biological target: T8, full length cyno SIRPα stably expressed on CHOK1 cells (cynomolgus monkey, UniProt A0A2K5VYQ9 31-507); assay: FACS on CHOK1 cells
T8 construct: whole, on cells; also called CHOK1-cyno SIRPα-2A2 cells; CHOK1-cyno SIRPα
T8 sequence: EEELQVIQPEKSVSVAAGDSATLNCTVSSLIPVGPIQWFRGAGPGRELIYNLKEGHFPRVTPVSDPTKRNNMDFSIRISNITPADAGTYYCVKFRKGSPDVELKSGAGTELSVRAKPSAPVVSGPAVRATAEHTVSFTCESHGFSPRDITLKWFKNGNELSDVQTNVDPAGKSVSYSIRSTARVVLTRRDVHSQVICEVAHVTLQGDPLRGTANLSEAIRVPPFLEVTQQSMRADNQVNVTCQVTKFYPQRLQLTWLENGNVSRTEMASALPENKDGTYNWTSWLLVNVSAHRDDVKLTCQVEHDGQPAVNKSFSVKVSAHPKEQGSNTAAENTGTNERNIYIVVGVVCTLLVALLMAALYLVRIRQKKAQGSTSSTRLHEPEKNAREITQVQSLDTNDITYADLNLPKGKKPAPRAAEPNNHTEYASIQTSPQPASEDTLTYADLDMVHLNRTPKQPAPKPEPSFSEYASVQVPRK
Procedure: as §1

[9] = biological target: T9, full length C57BL/6 mouse SIRPα stably expressed on CHOK1 cells (mouse (C57BL/6), UniProt P97797 32-513); assay: FACS on CHOK1 cells
T9 construct: whole, on cells; also called CHOK1-C57BL/6 mouse SIRPα-2.22 cells
T9 sequence (looked up): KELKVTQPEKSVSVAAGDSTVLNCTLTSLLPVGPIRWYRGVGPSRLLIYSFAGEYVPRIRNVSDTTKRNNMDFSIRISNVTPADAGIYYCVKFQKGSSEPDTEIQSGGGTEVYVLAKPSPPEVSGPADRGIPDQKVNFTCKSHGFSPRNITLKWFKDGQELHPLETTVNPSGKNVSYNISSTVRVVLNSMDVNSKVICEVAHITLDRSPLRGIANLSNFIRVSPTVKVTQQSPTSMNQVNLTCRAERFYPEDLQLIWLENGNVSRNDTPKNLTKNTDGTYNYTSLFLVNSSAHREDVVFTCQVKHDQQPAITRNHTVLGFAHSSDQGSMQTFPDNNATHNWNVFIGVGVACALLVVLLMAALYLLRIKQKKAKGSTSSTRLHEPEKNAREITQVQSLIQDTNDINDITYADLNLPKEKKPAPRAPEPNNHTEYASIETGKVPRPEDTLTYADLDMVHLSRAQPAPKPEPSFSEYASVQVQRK
Procedure: as §1

[10] = biological target: T6, 6×His tagged human SIRPα v1 ECD …; assay: SPR (Biacore), antibody captured
Procedure: (§2) Anti-SIRPα chimeric antibodies were characterized for binding affinity against human SIRPα v1, human SIRPα v2 and C57BL/6 mouse SIRPα using Biacore (GE). Briefly the antibodies to be tested were captured to CM5 chip (GE) using Human Antibody Capture Kit (GE). The antigens of 6×His tagged human SIRPα v1, human SIRPα v2 and C57BL/6 mouse SIRPα ECD recombinant proteins were serially diluted for multiple doses and injected at 30 μl/min for 180 s. Buffer flow was maintained for dissociation of 400 s. 3 M MgCl₂ was used for chip regeneration. The association and dissociation curves were fit with 1:1 binding model, and the Ka/Kd/KD values for each antibody were calculated.

[11] = biological target: T10, biotin labeled soluble human SIRPα v1 ECD recombinant protein (human, UniProt P78324 31-373, biotin labeled); assay: competitive ELISA, hSIRPα/CD47 blocking
T10 construct: extracellular domain
T10 sequence (P78324 31-373): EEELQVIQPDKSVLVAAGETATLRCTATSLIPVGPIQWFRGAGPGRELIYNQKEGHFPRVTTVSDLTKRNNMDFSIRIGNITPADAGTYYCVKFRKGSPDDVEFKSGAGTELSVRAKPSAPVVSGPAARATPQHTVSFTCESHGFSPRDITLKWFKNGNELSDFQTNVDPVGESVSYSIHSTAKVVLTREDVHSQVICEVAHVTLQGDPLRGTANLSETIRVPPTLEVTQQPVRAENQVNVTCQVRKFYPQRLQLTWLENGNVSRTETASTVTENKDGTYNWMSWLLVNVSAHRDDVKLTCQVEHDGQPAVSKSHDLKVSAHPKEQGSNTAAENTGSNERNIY

[12] = biological target: T11, 6×His tagged C57BL/6 mouse SIRPα ECD recombinant protein (mouse (C57BL/6), UniProt P97797 32-373); assay: ELISA on coated mouse SIRPα (C57BL/6) ECD [Continued) F]
T11 construct: extracellular domain; bought; also called mSIRPα (C57BL/6); mouse SIRPα (C57BL/6) ECD
T11 sequence: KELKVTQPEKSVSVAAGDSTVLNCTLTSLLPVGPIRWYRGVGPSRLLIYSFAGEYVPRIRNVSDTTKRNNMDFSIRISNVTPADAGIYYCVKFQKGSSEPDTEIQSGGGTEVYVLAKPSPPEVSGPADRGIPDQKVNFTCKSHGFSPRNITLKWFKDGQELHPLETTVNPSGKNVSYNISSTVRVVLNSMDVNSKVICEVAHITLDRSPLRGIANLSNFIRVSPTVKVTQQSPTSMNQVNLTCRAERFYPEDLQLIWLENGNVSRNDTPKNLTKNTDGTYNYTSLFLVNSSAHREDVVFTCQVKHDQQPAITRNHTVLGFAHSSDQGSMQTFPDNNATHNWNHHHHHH

[13] = biological target: T12, 6×His tagged human SIRPα v2 ECD recombinant protein (human); assay: SPR (Biacore)
T12 sequence (chain, as listed by the source): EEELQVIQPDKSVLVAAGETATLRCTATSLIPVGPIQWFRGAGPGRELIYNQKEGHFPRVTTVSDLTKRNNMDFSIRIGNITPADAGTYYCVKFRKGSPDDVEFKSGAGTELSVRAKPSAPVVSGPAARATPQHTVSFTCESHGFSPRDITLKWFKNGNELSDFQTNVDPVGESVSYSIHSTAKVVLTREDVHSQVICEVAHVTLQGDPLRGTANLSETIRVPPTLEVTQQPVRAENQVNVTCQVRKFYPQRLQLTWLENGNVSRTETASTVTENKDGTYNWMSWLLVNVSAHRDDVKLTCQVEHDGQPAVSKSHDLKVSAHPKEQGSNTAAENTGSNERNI

[14] = biological target: T11, 6×His tagged C57BL/6 mouse SIRPα ECD …; assay: SPR (Biacore)
[15] = biological target: T12, 6×His tagged human SIRPα v2 ECD …; assay: SPR (Biacore), antibody captured
Procedure: as §2

[16] = biological target: T11, 6×His tagged C57BL/6 mouse SIRPα ECD …; assay: SPR (Biacore), antibody captured
Procedure: as §2

T1 sequence (P78324 31-370 limits assumed): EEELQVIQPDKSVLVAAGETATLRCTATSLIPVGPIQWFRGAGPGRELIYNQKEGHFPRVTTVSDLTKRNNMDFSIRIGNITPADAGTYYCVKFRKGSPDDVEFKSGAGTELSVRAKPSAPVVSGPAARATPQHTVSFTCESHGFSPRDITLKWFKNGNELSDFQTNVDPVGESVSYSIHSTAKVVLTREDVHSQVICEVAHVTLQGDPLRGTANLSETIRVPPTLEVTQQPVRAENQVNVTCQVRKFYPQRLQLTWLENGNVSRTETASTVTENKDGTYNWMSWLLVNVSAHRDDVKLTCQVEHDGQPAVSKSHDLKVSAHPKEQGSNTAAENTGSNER

B1: humanized antibody hu035.03 (antibody, V domains shown)
VH: QIQLVQSGSELKKPGASVKVSCRARGYTLTDYAMNWVRQAPGQGLEWMGFINTYTGEPTYAQGFKGRFVFSLDTSVSTAYLQIGSLKAEDTAVYYCARTRGYYDFDGGAFDYWGQGTLVTVSS
VL: DIQMTQSPSSLSASVGDRVTITCRASQNVGTHLAWYQQKPGKSPKALIFSASYRYIGVPSRFSGSGSGTDFTLTISSLQPEDFATYYCQQYNTYPLTFGQGTKLEIK
- EC50 [1]: 0.13 nM
- EC50 [2]: 0.11 nM
- EC50 [3]: 0.17 nM
- EC50 [4]: 6.78 nM
- EC50 [5]: 0.23 nM
- Kd [6]: 3.2 nM
- EC50 [7]: 1.46 nM
- EC50 [8]: 0.3 nM
- MFI at 2 ug/ml [9]: 626 MFI
- Kd [10]: 3.2 nM
- koff [10]: 0.000189 s⁻¹
- kon [10]: 59200 M⁻¹ s⁻¹
- IC50 [11]: 1.43 nM
- EC50 (read off the curve) [12]: ~0.09 µg/mL

B2: humanized antibody hu035.13 (antibody, V domains shown)
VH: B1 VH with R23K, R25S, T28S, L29I, D31N, G84S
VL: DIQMTQSPSRLGASVGDRVTITCRASQNVGTHLAWYQQKPGKAPKSLIYSAIYRYIGVPSRFSGSGSGTDFTLTISSLQPEDFATYFCQQYNTYPLTFDQGTKLEIKR
- EC50 [1]: 0.14 nM
- EC50 [2]: 0.17 nM
- EC50 [3]: 0.18 nM
- EC50 [4]: 0.67 nM
- EC50 [5]: 0.16 nM
- Kd [13]: 1.24 nM
- Kd [6]: 0.61 nM
- Kd [14]: 45.8 nM
- EC50 [7]: 1.03 nM
- EC50 [8]: 0.26 nM
- MFI at 2 ug/ml [9]: 876 MFI
- Kd [15]: 3.2 nM
- koff [15]: 0.000189 s⁻¹
- kon [15]: 59200 M⁻¹ s⁻¹
- Kd [10]: 0.61 nM
- koff [10]: 0.000117 s⁻¹
- kon [10]: 192000 M⁻¹ s⁻¹
- Kd [16]: 45.8 nM
- koff [16]: 0.00259 s⁻¹
- kon [16]: 56600 M⁻¹ s⁻¹
- IC50 [11]: 1.33 nM

B3: humanized antibody hu035.14 (antibody, V domains shown)
VH: B1 VH with R23K, R25S, T28S, L29I, G84S
VL: B1 VL with S52I, S77N
- EC50 [1]: 0.15 nM
- EC50 [2]: 0.16 nM
- EC50 [3]: 0.23 nM
- EC50 [4]: 0.52 nM
- EC50 [5]: 0.28 nM
- Kd [6]: 1.44 nM
- EC50 [7]: 1.31 nM
- EC50 [8]: 0.36 nM
- MFI at 2 ug/ml [9]: 1050 MFI
- Kd [10]: 1.44 nM
- koff [10]: 0.000129 s⁻¹
- kon [10]: 89200 M⁻¹ s⁻¹
- IC50 [11]: 1.46 nM
- EC50 (read off the curve) [12]: ~0.04 µg/mL

B4: humanized antibody hu035.10 (antibody, V domains shown)
VH: B1 VH
VL: B1 VL with S52I, S77N
- EC50 [1]: 0.19 nM
- EC50 [2]: 0.16 nM
- EC50 [3]: 0.19 nM
- EC50 [4]: 0.34 nM
- EC50 [5]: 0.18 nM
- Kd [13]: 2.15 nM
- Kd [6]: 3.82 nM
- Kd [14]: 33.8 nM
- EC50 [7]: 1.44 nM
- EC50 [8]: 0.33 nM
- MFI at 2 ug/ml [9]: 1110 MFI
- Kd [15]: 1.64 nM
- koff [15]: 0.00017 s⁻¹
- kon [15]: 104000 M⁻¹ s⁻¹
- Kd [10]: 3.82 nM
- koff [10]: 0.000238 s⁻¹
- kon [10]: 62100 M⁻¹ s⁻¹
- Kd [16]: 33.8 nM
- koff [16]: 0.00152 s⁻¹
- kon [16]: 45000 M⁻¹ s⁻¹
- IC50 [11]: 1.49 nM
- EC50 (read off the curve) [12]: ~0.04 µg/mL

B5: humanized antibody hu035.17 (antibody, V domains shown)
VH: B1 VH
VL: B2 VL with R10S, G12S
- EC50 [1]: 0.18 nM
- EC50 [2]: 0.15 nM
- EC50 [3]: 0.15 nM
- EC50 [4]: 0.54 nM
- EC50 [5]: 0.26 nM
- Kd [13]: 1.43 nM
- Kd [6]: 0.86 nM
- Kd [14]: 25.9 nM
- EC50 [7]: 1.15 nM
- EC50 [8]: 0.24 nM
- MFI at 2 ug/ml [9]: 1120 MFI
- Kd [15]: 2.17 nM
- koff [15]: 0.000191 s⁻¹
- kon [15]: 88300 M⁻¹ s⁻¹
- Kd [10]: 0.86 nM
- koff [10]: 0.00012 s⁻¹
- kon [10]: 140000 M⁻¹ s⁻¹
- Kd [16]: 25.9 nM
- koff [16]: 0.0015 s⁻¹
- kon [16]: 57900 M⁻¹ s⁻¹
- IC50 [11]: 1.22 nM
- EC50 (read off the curve) [12]: ~0.04 µg/mL

B6: humanized antibody hu035.09 (antibody, V domains shown)
VH: B1 VH with R25G
VL: B1 VL with S43A, A46S, F49Y, S52I
- EC50 [1]: 0.13 nM
- EC50 [2]: 0.19 nM
- EC50 [3]: 0.23 nM
- EC50 [4]: 1.05 nM
- EC50 [5]: 0.21 nM
- Kd [6]: 2.17 nM
- EC50 [7]: 1.45 nM
- EC50 [8]: 0.36 nM
- MFI at 2 ug/ml [9]: 950 MFI
- Kd [10]: 2.17 nM
- koff [10]: 0.000191 s⁻¹
- kon [10]: 88300 M⁻¹ s⁻¹
- IC50 [11]: 1.36 nM
- EC50 (read off the curve) [12]: ~0.04 µg/mL
